Source: patent US20020065226A1
Non-standard residues stand in square brackets, D forms with d. pGlu = O=C1CC[C@@H](C(=O)O)N1; azaGly = NNC(=O)O

Key:
[1] = target: chorionic peptidase-1 (C-ase-1) (human); assay: competitive inhibition of C-ase-1 degradation of GnRH (competitor)
[2] = target: chorionic peptidase-1 (C-ase-1) (human); assay: competitive inhibition of C-ase-1 degradation of GnRH
[3] = target: chorionic peptidase-1 (C-ase-1) (human); assay: inhibition of C-ase-1 degradation of GnRH (competitor)
[4] = target: chorionic peptidase-1 (C-ase-1) (human); assay: cell-based or functional assay
[5] = target: human placental GnRH receptor (human) (UniProt P30968); assay: competitive radioreceptor assay, human term placental GnRH receptors, 125I-Buserelin as competitor
[6] = target: chorionic peptidase-1 (C-ase-1) (human); assay: C-ase-1 degradation assay, Lineweaver-Burke double reciprocal plot
[7] = target: baboon ovarian enzymatic activity that degrades GnRH; assay: degradation assay with baboon ovarian homogenate, double reciprocal plot
[8] = target: human placental GnRH receptor (human) (UniProt P30968); assay: competitive radioreceptor assay on human term placental membranes, radiolabeled Buserelin as competitor
[9] = target: chorionic peptidase-1 (C-ase-1) (human); assay: competitive inhibition of C-ase-1 degradation of mammalian GnRH (competitor)
[10] = target: baboon ovarian GnRH receptor (baboon); assay: radioligand binding, baboon ovary membrane fraction
[11] = target: human placental GnRH receptor (human) (UniProt P30968); assay: homologous radioreceptor assay on human term placental membranes, radiolabeled D-Arg-chicken II GnRH-aza-Gly-amide as label
[12] = target: baboon endometrium GnRH receptor (baboon); assay: receptor binding, baboon endometrium (stroma and epithelium)
[13] = target: human placental GnRH receptor (human) (UniProt P30968); assay: homologous radioreceptor assay, placenta 2 membrane preparation, radiolabeled D-Arg(6)-chicken II GnRH-aza-Gly-amide as label
[14] = target: human placental GnRH receptor (human) (UniProt P30968); assay: competitive radioreceptor assay on human term placental membranes, radiolabeled Buserelin as competitor, double reciprocal plot
[15] = target: human placental GnRH receptor (human) (UniProt P30968); assay: homologous radioreceptor assay, average of three human term placental membrane preparations
[16] = target: baboon ovarian GnRH receptor (baboon); assay: radioreceptor assay, baboon ovary membrane fraction, radiolabeled D-Arg(6)-chicken II GnRH-aza-Gly(10)-amide
[17] = target: human placental GnRH receptor (human) (UniProt P30968); assay: radioreceptor assay on human term placental membranes, radiolabeled D-Arg(6)-chicken II GnRH-aza-Gly-amide as label

## D-Arg (6)-salmon GnRH-aza-Gly (10)-amide (peptide)
[1]
  Ki: 200 nM

## chicken I GnRH (peptide)
[1]
  Ki: 80 nM
[2]
  fold less potent than GnRH: 3 fold
  fold more potent than salmon or chicken II GnRH: 2 fold
[3]
  relative potency compared to GnRH (relative potency): 0.6

## 6D-Trp-GnRH-10 ethylamide (from UniProt P01148 24-32) (peptide)
[1]
  Ki: 60 nM

## Antide (peptide)
[1]
  Ki: 120 nM
[2]
  fold less potent than GnRH: 3 fold
  fold more potent than salmon or chicken II GnRH: 2 fold
[3]
  relative potency compared to GnRH (relative potency): 0.6

## Buserelin (from UniProt P01148 24-32) (peptide)
[1]
  Ki: 110 nM
[4]
  rate of degradation by C-ase-1 (fold of the rate for mammalian GnRH): 0.25

## chicken II GnRH-ethylamide (peptide)
[1]
  Ki: 130 nM
[2]
  fold less active than GnRH: > 200 fold
[5]
  Kd: 30 nM
  fold activity over GnRH: 33 fold

## 9OH-Pro-GnRH (from UniProt P01148 24-92) (peptide)
[3]
  relative potency compared to GnRH (relative potency): 1.5

## mammalian GnRH (from UniProt P01148 24-33) (peptide)
[6]
  Ks: 30 nM
[1]
  Ki: 30 nM
[7]
  Ks: 30 nM

## chicken II GnRH (peptide)
[1]
  Ki: 200 nM
[8]
  fold potency over mammalian GnRH: 3 fold
[3]
  relative potency compared to GnRH (relative potency): 0.2
[9]
  potency relative to mammalian GnRH: 0.167 fold

## des-Gly10, D-Leu6-GnRH-ethylamide (from UniProt P01148 24-92) (peptide)
[1]
  Ki: 80 nM

## salmon GnRH (peptide)
[1]
  Ki: 300 nM
[3]
  relative potency compared to GnRH (relative potency): 0.2

## lamprey GnRH (peptide)
[1]
  Ki: 20 nM
[3]
  relative potency compared to GnRH (relative potency): 1.5

## Mammalian D-Trp (6) GnRH (from UniProt P01148 24-92) (peptide)
[1]
  Ki: 20 nM

## des-Gly10-GnRH-ethylamide (from UniProt P01148 24-92) (peptide)
[1]
  Ki: 70 nM

## [pGlu]HWSH[dR]WYP[azaGly]-NH2 (also: also used radioiodinated as label) [D-Arg(6)-chicken II GnRH-aza-Gly(10)-amide]
[10]
  specific activity of binding, fold over placental membrane preparations: 50 to 100 fold
[11]
  fold change of affinity against the assay with the Buserelin label: 2 fold
[12]
  Kd: 60 nM
[13]
  Kd: 68 nM
[8]
  fold affinity over chicken II GnRH or Buserelin: 2 fold
  fold affinity over mammalian GnRH: 60 fold
[14]
  Kd: 175 nM
[15]
  Kd: 93 nM
[16]
  Kd: 10 nM
[17]
  fold affinity over mammalian GnRH: 25 fold
